Assay [1] addresses T1, human Interleukin-2 (human, UniProt P60568 21-153, biotinylated (site not stated) when immobilised on streptavidin biosensors; soluble in the competition studies). Put plainly: cell-based or functional assay.
Assay [2] has as its target T1, human Interleukin-2. The assay can be described thus: BLI (Octet), immobilised human IL-2, soluble antibody, 1:1 Langmuir fit.
In assay [3] the target is T1, human Interleukin-2. The assay can be described thus: BLI, equilibrium KD from titration curve, immobilised human IL-2, soluble antibody; Equilibrium KD, not kinetic KD. (BLI is a label-free optical method that tracks binding on a fibre tip over time.)
In assay [4] the target is T1, human Interleukin-2. The assay can be described thus: BLI, kinetic KD, immobilised human IL-2, soluble antibody.

The results in this text go back to patent publication US20240279328A1 (Johns Hopkins, published 2024).

As usually defined, the koff is the rate constant with which the complex falls apart. High values mean fast dissociation, low ones slow dissociation. As usually defined, the kon is the rate constant with which the complex forms. Broadly, the Kd is the equilibrium constant for the complex coming apart. Low values mean tighter binding, high ones weaker binding.

T1 sequence (P60568 21-153 limits assumed): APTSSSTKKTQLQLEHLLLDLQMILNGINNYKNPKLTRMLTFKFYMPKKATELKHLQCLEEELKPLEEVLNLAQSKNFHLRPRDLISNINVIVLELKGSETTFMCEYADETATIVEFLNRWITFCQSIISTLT

B1: F5111 antibody (wild type anti-hIL2 antibody, human IgG1, lambda light chain) (antibody)
heavy: not shown
light: GSNFMLTQPHSVSESPGKTVTISCTRSSGSIASNYVQWYQQRPGSSPTTVIYEDNQRPSGVPDRFSGSIDSSSNSASLTISGLKTEDEADYYCQSYDSSNVVFGGGTKLTVLGQPKAAPSVTLFPPSSEELQANKATLVCLISDFYPGAVTVAWKADSSPVKAGVETTTPSKQSNNKYAASSYLSLTPEQWKSHRSYSCQVTHEGSTVEKTVAPTECS
notes: Expressed in CHO cells, purified on protein G; also called F5111 WT; parent F5111 mAb
In the case of B1, in the assay with human Interleukin-2 [1], the “YT+ EC50 (STAT5 phosphorylation, IL-2Rα+ YT-1 cells)” value is 150 pM and the “YT- EC50 (STAT5 phosphorylation, IL-2Rα- YT-1 cells)” value worked out at 660 pM. In the assay with human Interleukin-2 [2], this molecule yielded a koff of 0.00022 s⁻¹ and a kon of 360000 M⁻¹ s⁻¹. Also, in the assay with human Interleukin-2 [3], the Kd is 6500 pM. For the same molecule, binding with human Interleukin-2 [4] was characterised by a dissociation constant (Kd) of 630 pM.
